Experimental data published in patent publication US20020058253A1.

Target: QL9, nonameric variant of p2Ca (2-oxoglutarate dehydrogenase); residues not printed peptide on H-2Ld (mouse)
Assay: value cited from Manning et al. 1999; single-chain

2C TCR
Kd: 3.2 µM
